Measurements: the supplement of paper PMC12042874
± gives the uncertainty stated by the source.

Experiment: amyloid nucleation score (Sup35N fusion, yeast selection) (log enrichment); library NNK1; higher = more nucleation; inactive = no reads after selection
How it was run: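 The nucleation score is the DiMSum log enrichment of output over input reads, centred on the mode score of non-aggregating sequences. Only sequences with 100 or more input reads were scored, using Illumina sequencing of input and output plasmid inserts. Psi-negative yeast expressing Sup35N fused to peptides of 20 random codons were induced 24 hours with 100 μM copper sulfate and grown 7 days at 30°C on medium lacking adenine and uracil.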

| Substance | amyloid nucleation score |
| --- | --- |
| CSCYAM | 3.25 ± 0.19 |
| IIIPFLSNSCEFMWL | 4.81 ± 0.076 |
| YPDNMWYLCMLCRGWMCETR | -0.644 ± 0.62 |
| KCFAFRSLAHIASTCGWCLN | 2.4 ± 0.31 |
| RVLIRYQV | 0.345 ± 0.58 |
| DKCCKLSRD | 0.972 ± 0.58 |
| QNDVSGKLGNKLSSVCSLRR | 0.405 ± 0.95 |
| DSINCCMMCYEK | 7.567 ± 0.071 |
| EARWRQSC | 0.387 ± 0.36 |
| YRIHKIIKEPAEVTSLLRW | -0.813 ± 0.52 |
| SPPTMIETGTHKASSH | 0.199 ± 0.57 |
| VAASFCYIYRRYPSLFLGSR | 0.422 ± 0.53 |
| HGTVNLIYVNEI | 0.133 ± 0.67 |
| FATYWVHDMAWRMSGVQMSV | 0.307 ± 0.84 |
| MGLMIMIFWWEDM | -0.82 ± 0.91 |
| PVGGHMVRLSSMSNSLAFKV | -0.563 ± 0.68 |
| VYILLRVRVWSFYVVVVSRF | 0.484 ± 0.28 |
| DAADMTGLFNRLLCVFEYVW | 0.797 ± 0.66 |
| YYPNKLFEYSKWNHAAGRVR | 0.085 ± 0.64 |
| PLEVWNRGVGPIGCVCRGLK | 1.29 ± 0.57 |
| CYSKKVLHCFKTSCLTLQVT | 1.27 ± 0.42 |
| KSSSV | -0.352 ± 0.6 |
| EFAKNSFAKNTFAADAWLII | 0.802 ± 0.78 |
| FIMVCGSKGLLVALGALE | -0.752 ± 1.3 |
| GGECYLLEYLSMSGVYCFRI | -1.25 ± 1.4 |
| HYVVVKRRPMDMSGLVGWDA | 0.036 ± 0.43 |

| Substance | amyloid nucleation score |
| --- | --- |
| SSPWRYSDATFCTAGGEGKS | -0.465 ± 0.62 |
| TVLIILRALLNSSPKTFD | 0.387 ± 0.22 |
| RPCIWFGTTCFYCTVFN | 5.76 ± 0.061 |
| SKARKIWYAWLVTPPMRQTE | 0.667 ± 0.3 |
| CSYDNVPDLFC | 0.582 ± 0.68 |
| KLEGSARSGTTSRGSFSECV | 0.254 ± 0.38 |
| CIMMRHMVSYEADLRTMFLN | 3.58 ± 0.18 |
| QRRALHTL | -0.069 ± 0.46 |
| RFEMNCWSC | -0.802 ± 0.39 |
| RSISSVLVSIFTKMG | 0.232 ± 0.35 |
| SNWLM | 2.06 ± 0.53 |
| RLLFITYSMVSKYNKCLIRG | 0.048 ± 0.74 |
| KVGLLWGT | 0.197 ± 0.93 |
| NLKRPNELWINIETFIRSLH | 1.32 ± 0.38 |
| YEMVRGCLNMSMMTDKFRAE | 0.851 ± 0.67 |
| IGSRIKA | 1.04 ± 0.19 |
| FIMIDRPETLQPNLDGLKL | -0.524 ± 0.45 |
| ITDVMCMGGSTCFGNSGYTN | 0.108 ± 0.56 |
| FFMIRRMLVTGWARQCIPRY | -0.105 ± 0.75 |
| SGYLVSSELREFQ | 4.28 ± 0.11 |
| NCTWITGIFS | 0.044 ± 0.35 |
| SAKNTGYMWMLIWLG | 0.204 ± 0.79 |
| IGYITHITYSVLVL | 0.371 ± 0.3 |
| FIESVL | 1.14 ± 0.67 |
| TEFHAKGPTWCELSYSFAIL | -0.195 ± 0.58 |
| CARNNHELVNYFKAFIPVVA | 0.751 ± 0.43 |

| Substance | amyloid nucleation score |
| --- | --- |
| PRTNSNMIKCYIFDNAWNQL | 6.234 ± 0.055 |
| DQRVDR | 0.107 ± 0.89 |
| NQWCAFWYRESSRVYDCDWL | -0.478 ± 0.53 |
| DQITYVPIMNQMMWATLLTF | 0.849 ± 0.59 |
| NLTTPIWDRSYCSYMNMMNS | 0.369 ± 0.42 |
| WLEGLKYKLAVDGRFNQSWG | -0.086 ± 0.81 |
| WLLNMENYWTVSTAGWSRWN | 0.332 ± 0.46 |
| YFYDVMNLRCLVFNKSWFVL | 0.119 ± 0.51 |
| SDLCSLLASQRFLRRSGYKL | inactive |
| LYTVTTKR | -0.119 ± 0.31 |
| PSKSVCKPCRWSGSWWGER | 0.073 ± 1.6 |
| IRGCTAC | 0.958 ± 0.76 |
| YIIWVYCVRMNSLHELLAMS | 0.684 ± 0.8 |
| VKLFSVNKNNMTVPSTALCS | 5.969 ± 0.047 |
| GRTYDDYGHVIYRSWLPSLH | -0.274 ± 1.4 |
| CASRNCGNYVK | inactive |
| LGRSGKMTT | -0.032 ± 0.54 |
| STCSGISFVCHSTIIIKVTF | 3.92 ± 0.12 |
| ETLSSFI | 0.032 ± 0.28 |
| FLIYVQYTKYSLWAPVFIHR | inactive |
| SDDLFVNFSMSVWFLKVSLR | 0.515 ± 0.34 |
| KSTSQSYVIFFAQCFKYTTV | -0.592 ± 0.31 |
| SCMPHYEFMWRGAQAPWGLD | 0.183 ± 0.5 |
| IWFLHHEVKF | 0.603 ± 0.58 |
| KGICRGRSLSVPESWAPFR | 0.133 ± 0.31 |
| GDISYVSASLQLFNWVLSCV | 3.97 ± 0.13 |

| Substance | amyloid nucleation score |
| --- | --- |
| FVLDNRKFYVCFVGYRFGLF | 4.83 ± 0.051 |
| PSLVQNGSQSTPVEDYIIEY | -0.618 ± 0.65 |
| SFYQAYYVACCKYNVEY | 5.96 ± 0.063 |
| VSFILGSNCWAYKTTPMGFL | 0.881 ± 0.39 |
| MLFLARRILSEYRFMPTWVG | inactive |
| TSDNGKNAQGWGM | 0.145 ± 1 |
| TFTFNACELCVPGLMCKEWN | 3.94 ± 0.096 |
| FRVMDRVGSCLIVELTPG | 0.084 ± 0.55 |
| FRMGFISYQTQTLTSRVFSF | 2.73 ± 0.19 |
| IVPRAFIAWIAYQGRSPYGA | 0.619 ± 1.2 |
| DTVYLLGGCCLVVRLNLFIG | 3.77 ± 0.15 |
| IWLVQIHVSSSMPTSYPHIS | 0.355 ± 1.4 |
| IYCYSYYLCSFLCVYDISKG | -0.457 ± 0.79 |
| DAVSGGVFNCVLFNKVLSLM | -0.597 ± 0.32 |
| LFADYILCTCAGCGTGAWEM | -0.092 ± 1.1 |
| ISTSLSTGLGKLRESWLTYH | inactive |
| YLINRRIYVPVYLLALVISL | -0.189 ± 0.4 |
| ILVLRGCIKLR | inactive |
| CLQFSVEARRLLKLNVGALE | 2.29 ± 0.13 |
| KTWVYSRRRRCVRPGCCGDV | 3.3 ± 0.16 |
| RVLANCLCFKYNETRRGCTL | 0.218 ± 0.95 |
| NDIPLSIRSHS | 0.269 ± 0.37 |
| MASTMPC | -0.654 ± 1 |
| GFYLRYYLGISVRHYNHVIW | 1.19 ± 0.72 |
| FGNRFEYRFERTN | -0.482 ± 1.1 |
| WRRNGNAGMSNQCWVRVKFK | 0.775 ± 0.46 |

| Substance | amyloid nucleation score |
| --- | --- |
| YCVKV | 0.308 ± 0.62 |
| FLYDYYG | inactive |
| IQESVMLVLVDGGVISARL | 0.106 ± 0.3 |
| SSVVL | 0.531 ± 0.44 |
| YEPDELTWSHCTELTEALML | -0.433 ± 0.66 |
| TSGIYRRSDFLERHIS | 0.993 ± 0.71 |
| NSYLCCIWK | 7.32 ± 0.08 |
| ISNVWNCGKFRSLGLFVTGQ | 0.247 ± 0.31 |
| MRPVSLYGFIFCCAFQGLWF | 4.99 ± 0.07 |
| CCYWMASALENRSRRIRLHV | -0.612 ± 0.84 |
| CVTANRHDENITSLLWRIVQ | -2.36 ± 2.4 |
| HLIKRYGYSCVRWVC | 0.003 ± 0.53 |
| SPTLARSVWFRCLCTANGRE | 0.698 ± 0.93 |
| YYKCMATQVVGLLMSVWATY | 1.06 ± 0.85 |
| SIWSGMLTGCFRLRSITWHN | 0.908 ± 0.24 |
| YCMYMVWLKGK | -0.747 ± 0.37 |
| NWDGLYVYEYSRFVVASCRN | 1.2 ± 0.2 |
| LSTYAGCRNAWPELQ | -0.52 ± 0.4 |
| CLKLDNMTRLVTNGTLGSAS | inactive |
| VRSFGWTEFKCVTFFQEWIS | -0.029 ± 0.44 |
| WCVFSLLKCINSLAQHFKGS | inactive |
| LTSQSLVVNFLLYCTG | 1.1 ± 0.85 |
| WARESRIHTYVRVMFSGKWG | 0.517 ± 0.54 |
